The target in this test is hKGF receptor on the surface of PC-3 prostatic carcinoma cells (UniProt P21802). The test is described as follows: saturation binding of 125I-hKGF on PC-3 cells, Scatchard analysis.

B1: Recombinant human Keratinocyte Growth Factor (hKGF) (ligand, UniProt P21781 32-194, looked up)
chain: CNDMTPEQMATNVNCSSPERHTRSYDYMEGGDIRVRRLFCRTQWYLRIDKRGKVKGTQEMKNNYNIMEIRTVAVGIVAIKGVESEFYLAMNKEGKLYAKKECNEDCNFKELILENHYNTYASAKWTHNGGEMFVALNQKGIPVRGKKTKKEQKTAHFLPMAIT
B1 gave a specific hKGF binding sites per cell (sites per cell) of 5000.

These data come from patent publication US20060229273A1.
